In IntAct's records for PubMed 17948060:

B1: G1/S-specific cyclin-D1 (Mus musculus), P25322 (parent)
chain: MEHQLLCCEVETIRRAYPDTNLLNDRVLRAMLKTEETCAPSVSYFKCVQKEIVPSMRKIVATWMLEVCEEQKCEEEVFPLAMNYLDRFLSLEPLKKSRLQLLGATCMFVASKMKETIPLTAEKLCIYTDNSIRPEELLQMELLLVNKLKWNLAAMTPHDFIEHFLSKMPEADENKQTIRKHAQTFVALCATDVKFISNPPSMVAAGSVVAAMQGLNLGSPNNFLSCYRTTHFLSRVIKCDPDCLRACQEQIEALLESSLRQAQQNVDPKATEEEGEVEEEAGLACTPTDVRDVDI
partner: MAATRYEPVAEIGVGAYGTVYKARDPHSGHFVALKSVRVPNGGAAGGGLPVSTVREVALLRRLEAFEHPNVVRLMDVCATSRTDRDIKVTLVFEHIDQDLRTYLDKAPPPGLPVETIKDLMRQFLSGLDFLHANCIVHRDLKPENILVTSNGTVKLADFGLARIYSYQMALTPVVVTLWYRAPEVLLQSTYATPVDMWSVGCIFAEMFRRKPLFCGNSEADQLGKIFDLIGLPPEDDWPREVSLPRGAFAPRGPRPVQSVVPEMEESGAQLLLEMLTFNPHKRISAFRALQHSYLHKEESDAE

Variants of: B1
Conditions: with cdk4_mouse Cdk4, P30285

Row | effect of a mutation on the interaction | Variant
1 | disrupting interaction | K114A
